Test results published in the supplement of paper PMC10065799, “High-throughput profiling of sequence recognition by tyrosine kinases and SH2 domains using bacterial peptide display” (eLife, 2023).

Legend:
[1] = target: SHP2-C SH2; experiment: SH2 binding enrichment of the phosphorylated peptide, bacterial display (enrichment ratio); higher = better substrate or ligand; peptides without Tyr show the background
[2] = target: c-Src SH2; experiment: as above
[3] = target: Grb2 SH2 (UniProt P62993); experiment: as above
[4] = target: Hck (UniProt P08631); experiment: phosphorylation enrichment, bacterial display (enrichment ratio); higher = better substrate or ligand; peptides without Tyr show the background
[5] = tested on: c-Src; experiment: as above
[6] = target: Fyn (UniProt P06241); experiment: as above
[7] = target: Jak2 (UniProt O60674); experiment: as above
[8] = target: EPHB2 (UniProt P29323); experiment: as above
[9] = tested on: Fer (mouse); experiment: as above
[10] = target: EPHB1 (UniProt P54762); experiment: as above
[11] = target: FGFR3 (UniProt P22607); experiment: as above
[12] = target: FGFR1 (UniProt P11362); experiment: as above
[13] = target: Fes (UniProt P07332); experiment: as above
[14] = tested on: c-Abl (mouse); experiment: as above
[15] = target: MERTK (UniProt Q12866); experiment: as above
[16] = tested on: AncSZ; experiment: as above
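Wherever SH2 binding enrichment of the phosphorylated peptide, bacterial display is given: peptide library displayed on the E. coli surface as eCPX fusions, selected cells deep-sequenced, score is each peptide's frequency after selection divided by its frequency in the input.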
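Wherever phosphorylation enrichment, bacterial display is given: 11-residue human phosphosite peptides and single-mutation variants displayed on the E. coli surface, counted by deep sequencing, each peptide's frequency after selection divided by its frequency in the unselected input library; frequency after pTyr selection over input frequency; kinase dosed for 20-30% of maximal phosphorylation in three min.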

Jak2, sequence (O60674 whole entry, looked up): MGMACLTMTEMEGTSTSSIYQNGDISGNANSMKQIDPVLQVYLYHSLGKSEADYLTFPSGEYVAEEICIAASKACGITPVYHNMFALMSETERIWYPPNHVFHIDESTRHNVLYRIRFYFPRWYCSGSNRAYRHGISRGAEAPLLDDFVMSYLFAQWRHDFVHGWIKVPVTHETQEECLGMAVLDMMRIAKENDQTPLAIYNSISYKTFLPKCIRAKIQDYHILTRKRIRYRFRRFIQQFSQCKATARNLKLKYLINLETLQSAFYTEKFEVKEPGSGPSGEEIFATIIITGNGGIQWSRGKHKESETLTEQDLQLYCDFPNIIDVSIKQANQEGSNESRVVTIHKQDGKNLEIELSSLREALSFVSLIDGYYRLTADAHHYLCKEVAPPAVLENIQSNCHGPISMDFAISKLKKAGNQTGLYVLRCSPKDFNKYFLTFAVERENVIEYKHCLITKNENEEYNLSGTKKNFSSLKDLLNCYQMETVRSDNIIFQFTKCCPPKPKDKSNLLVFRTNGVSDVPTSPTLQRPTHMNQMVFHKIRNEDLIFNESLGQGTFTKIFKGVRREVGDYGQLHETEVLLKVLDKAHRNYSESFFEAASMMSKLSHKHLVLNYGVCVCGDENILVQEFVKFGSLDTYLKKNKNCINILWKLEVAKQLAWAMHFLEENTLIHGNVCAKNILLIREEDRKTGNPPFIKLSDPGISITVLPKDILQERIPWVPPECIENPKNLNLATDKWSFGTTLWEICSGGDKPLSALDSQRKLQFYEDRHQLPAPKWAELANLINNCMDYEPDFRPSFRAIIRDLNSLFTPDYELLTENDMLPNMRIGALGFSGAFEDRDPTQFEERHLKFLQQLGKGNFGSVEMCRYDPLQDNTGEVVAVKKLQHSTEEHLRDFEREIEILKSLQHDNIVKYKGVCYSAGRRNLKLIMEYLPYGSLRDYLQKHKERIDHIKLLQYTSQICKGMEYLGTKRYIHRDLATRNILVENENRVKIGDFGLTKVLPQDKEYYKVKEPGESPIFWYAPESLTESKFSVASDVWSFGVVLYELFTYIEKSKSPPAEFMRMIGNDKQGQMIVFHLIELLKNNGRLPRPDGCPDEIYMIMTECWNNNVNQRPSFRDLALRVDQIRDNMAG
EPHB2, sequence (P29323 whole entry, looked up): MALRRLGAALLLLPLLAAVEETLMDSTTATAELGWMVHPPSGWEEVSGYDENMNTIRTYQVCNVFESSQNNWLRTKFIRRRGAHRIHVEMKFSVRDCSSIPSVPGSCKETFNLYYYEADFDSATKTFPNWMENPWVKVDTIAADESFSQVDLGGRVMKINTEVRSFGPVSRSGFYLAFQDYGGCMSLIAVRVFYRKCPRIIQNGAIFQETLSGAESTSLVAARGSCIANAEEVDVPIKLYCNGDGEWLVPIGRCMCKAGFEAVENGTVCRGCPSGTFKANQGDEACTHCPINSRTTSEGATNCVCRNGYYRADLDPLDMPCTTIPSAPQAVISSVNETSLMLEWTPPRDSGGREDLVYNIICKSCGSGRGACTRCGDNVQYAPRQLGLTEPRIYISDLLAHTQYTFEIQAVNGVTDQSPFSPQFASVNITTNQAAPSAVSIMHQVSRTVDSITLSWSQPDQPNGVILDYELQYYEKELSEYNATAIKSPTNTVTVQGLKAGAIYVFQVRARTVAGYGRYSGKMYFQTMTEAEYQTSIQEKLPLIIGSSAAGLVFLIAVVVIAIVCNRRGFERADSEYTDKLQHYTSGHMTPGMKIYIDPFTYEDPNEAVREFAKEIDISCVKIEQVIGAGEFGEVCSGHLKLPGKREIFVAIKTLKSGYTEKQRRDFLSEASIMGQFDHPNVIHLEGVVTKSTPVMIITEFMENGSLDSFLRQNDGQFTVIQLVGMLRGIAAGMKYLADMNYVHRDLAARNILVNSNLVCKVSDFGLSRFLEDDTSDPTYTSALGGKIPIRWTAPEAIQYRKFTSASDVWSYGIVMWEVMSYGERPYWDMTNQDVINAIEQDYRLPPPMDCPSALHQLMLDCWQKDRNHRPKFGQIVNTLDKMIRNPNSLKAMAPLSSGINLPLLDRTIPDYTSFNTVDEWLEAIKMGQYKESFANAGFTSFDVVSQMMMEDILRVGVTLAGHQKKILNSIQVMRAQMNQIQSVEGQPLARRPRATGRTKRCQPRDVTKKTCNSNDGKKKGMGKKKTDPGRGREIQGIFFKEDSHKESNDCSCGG
FGFR3, sequence (P22607 whole entry, looked up): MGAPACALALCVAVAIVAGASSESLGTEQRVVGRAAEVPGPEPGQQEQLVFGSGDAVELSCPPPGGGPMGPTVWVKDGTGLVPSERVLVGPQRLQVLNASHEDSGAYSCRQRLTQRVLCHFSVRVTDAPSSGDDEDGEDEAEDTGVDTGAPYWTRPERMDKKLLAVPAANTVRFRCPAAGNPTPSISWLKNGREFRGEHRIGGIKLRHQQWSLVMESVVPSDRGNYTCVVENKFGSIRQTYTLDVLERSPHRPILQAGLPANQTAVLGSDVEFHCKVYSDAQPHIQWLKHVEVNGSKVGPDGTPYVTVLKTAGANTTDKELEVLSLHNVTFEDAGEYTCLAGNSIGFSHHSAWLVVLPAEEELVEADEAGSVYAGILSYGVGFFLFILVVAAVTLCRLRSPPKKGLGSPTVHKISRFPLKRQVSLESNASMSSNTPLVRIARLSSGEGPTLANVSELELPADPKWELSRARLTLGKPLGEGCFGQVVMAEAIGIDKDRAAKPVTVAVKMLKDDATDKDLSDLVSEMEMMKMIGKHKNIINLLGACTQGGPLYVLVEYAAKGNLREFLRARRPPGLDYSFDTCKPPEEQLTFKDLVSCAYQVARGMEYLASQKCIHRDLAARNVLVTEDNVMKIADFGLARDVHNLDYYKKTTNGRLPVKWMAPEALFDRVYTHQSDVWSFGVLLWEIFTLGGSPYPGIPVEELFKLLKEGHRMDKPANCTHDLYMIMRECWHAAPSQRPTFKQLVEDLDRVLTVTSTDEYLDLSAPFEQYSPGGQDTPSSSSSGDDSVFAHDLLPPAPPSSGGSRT
Fyn, sequence (P06241 whole entry, looked up): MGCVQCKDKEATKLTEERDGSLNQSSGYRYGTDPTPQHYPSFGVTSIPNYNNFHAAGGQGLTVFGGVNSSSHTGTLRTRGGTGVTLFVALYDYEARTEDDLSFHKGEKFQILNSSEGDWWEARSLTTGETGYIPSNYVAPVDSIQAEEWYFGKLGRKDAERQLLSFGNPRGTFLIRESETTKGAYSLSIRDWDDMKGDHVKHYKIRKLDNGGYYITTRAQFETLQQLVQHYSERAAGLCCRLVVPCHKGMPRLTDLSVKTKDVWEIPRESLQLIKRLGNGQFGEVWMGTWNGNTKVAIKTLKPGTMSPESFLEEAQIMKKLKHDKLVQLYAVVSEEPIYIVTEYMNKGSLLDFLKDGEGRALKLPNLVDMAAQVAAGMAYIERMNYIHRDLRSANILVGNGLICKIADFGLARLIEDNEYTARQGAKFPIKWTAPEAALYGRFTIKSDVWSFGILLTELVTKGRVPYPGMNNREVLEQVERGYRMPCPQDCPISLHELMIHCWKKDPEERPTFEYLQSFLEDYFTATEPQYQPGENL
EPHB1, sequence (P54762 whole entry, looked up): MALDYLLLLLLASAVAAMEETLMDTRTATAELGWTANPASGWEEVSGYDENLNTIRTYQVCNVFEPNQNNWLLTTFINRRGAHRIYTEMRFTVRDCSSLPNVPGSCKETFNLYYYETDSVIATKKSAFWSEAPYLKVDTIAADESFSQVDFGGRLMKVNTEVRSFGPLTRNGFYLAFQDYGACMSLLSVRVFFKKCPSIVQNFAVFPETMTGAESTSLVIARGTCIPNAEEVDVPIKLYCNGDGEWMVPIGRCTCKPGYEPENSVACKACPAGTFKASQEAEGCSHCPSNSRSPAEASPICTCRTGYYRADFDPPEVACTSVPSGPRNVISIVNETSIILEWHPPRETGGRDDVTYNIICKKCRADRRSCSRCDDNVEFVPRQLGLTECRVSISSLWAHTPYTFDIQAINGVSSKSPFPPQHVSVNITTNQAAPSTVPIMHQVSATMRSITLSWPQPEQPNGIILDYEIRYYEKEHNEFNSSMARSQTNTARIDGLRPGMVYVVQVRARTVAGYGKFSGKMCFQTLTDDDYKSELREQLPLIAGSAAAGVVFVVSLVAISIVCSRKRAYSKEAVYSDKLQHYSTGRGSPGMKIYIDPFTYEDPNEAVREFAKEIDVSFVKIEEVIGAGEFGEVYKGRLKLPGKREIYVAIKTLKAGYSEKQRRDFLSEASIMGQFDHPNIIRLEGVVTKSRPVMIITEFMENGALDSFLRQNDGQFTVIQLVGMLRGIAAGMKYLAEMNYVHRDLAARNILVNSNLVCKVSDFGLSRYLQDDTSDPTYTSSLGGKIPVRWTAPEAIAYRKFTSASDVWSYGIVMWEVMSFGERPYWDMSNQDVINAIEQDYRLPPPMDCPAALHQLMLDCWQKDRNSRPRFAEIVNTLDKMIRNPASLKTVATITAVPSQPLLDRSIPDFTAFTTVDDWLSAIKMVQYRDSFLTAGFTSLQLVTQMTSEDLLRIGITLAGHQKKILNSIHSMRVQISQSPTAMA
Grb2 SH2, sequence (P62993 whole entry, looked up): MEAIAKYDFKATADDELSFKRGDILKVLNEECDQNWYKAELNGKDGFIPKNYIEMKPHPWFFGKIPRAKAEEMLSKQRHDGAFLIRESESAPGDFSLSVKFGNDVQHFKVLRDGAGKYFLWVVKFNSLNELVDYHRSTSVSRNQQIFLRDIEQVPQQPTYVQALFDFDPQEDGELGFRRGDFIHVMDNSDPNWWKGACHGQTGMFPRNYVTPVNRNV

| Sequence | SH2 binding enrichment [1] | SH2 binding enrichment [2] | SH2 binding enrichment [3] | phosphorylation enrichment [4] | phosphorylation enrichment [5] | phosphorylation enrichment [6] | phosphorylation enrichment [7] | phosphorylation enrichment [8] | phosphorylation enrichment [9] | phosphorylation enrichment [10] | phosphorylation enrichment [11] | phosphorylation enrichment [12] | phosphorylation enrichment [13] | phosphorylation enrichment [14] | phosphorylation enrichment [15] | phosphorylation enrichment [16] |
| --- | --- | --- | --- | --- | --- | --- | --- | --- | --- | --- | --- | --- | --- | --- | --- | --- |
| LVIIKYLPEWT [PSEN1_Y240_F237I] | 1.28 | 1.15 | 1.66 | 1.21 | 0.818 | 1.75 | 2.79 | 2.39 | 0.911 | 2.33 | 2.62 | 1.38 | 2.86 | 1.5 | 1.03 | 3.39 |
| MACDRYVAICS [OR8D4_Y123] | 3.31 | 7.31 | 0.743 | 0.45 | 0.586 | 0.529 | 0.755 | 0.592 | 0.475 | 0.508 | 0.503 | 0.623 | 0.841 | 0.55 | 0.576 | 0.709 |
| MALDIYRASYY [ALK_Y1278_R1275L] | 0.9 | 1.19 | 1.15 | 1.57 | 1.76 | 0.974 | 0.86 | 0.564 | 0.434 | 0.594 | 0.713 | 0.655 | 0.911 | 2.99 | 0.674 | 0.874 |
| MANYVYKAGPS [MAML2_Y515_M514V] | 1.09 | 0.547 | 0.755 | 0.419 | 0.457 | 0.451 | 0.452 | 0.455 | 0.343 | 0.476 | 0.508 | 0.434 | 0.643 | 0.815 | 0.473 | 0.448 |
| MCDSHYLESRF [CLK1_Y56_S61F] | 0.854 | 0.66 | 0.905 | 0.522 | 0.443 | 0.472 | 0.793 | 0.568 | 0.44 | 0.447 | 0.603 | 0.509 | 0.867 | 0.608 | 0.504 | 0.78 |
| MDNQEYKDAYT [BRDT_Y331_K336T] | 0.655 | 0.574 | 0.702 | 0.673 | 0.546 | 0.589 | 1.11 | 0.796 | 0.638 | 0.598 | 0.783 | 0.667 | 1.33 | 0.792 | 0.586 | 1.33 |
| MEFAKYGSLRG [RET_Y809_V804M_YF] | 0.729 | 0.453 | 1 | 0.49 | 0.484 | 0.456 | 0.495 | 0.629 | 0.348 | 0.427 | 0.448 | 0.514 | 0.628 | 0.454 | 0.417 | 0.604 |
| MGGSLYFSFPD [HIKESHI_Y55_V54L_YF] | 0.591 | 0.444 | 0.926 | 4.95 | 5.75 | 5.08 | 3.96 | 5.46 | 0.871 | 7.73 | 5.74 | 5.92 | 1.8 | 1.61 | 9.75 | 2.27 |
| MGRVNYGAYIN [GLB1_Y485] | 1.19 | 1.22 | 4.77 | 0.395 | 0.393 | 0.463 | 0.54 | 0.486 | 0.34 | 0.504 | 0.499 | 0.383 | 0.617 | 0.587 | 0.315 | 0.701 |
| MKGDFYRSLAE [YWHAG_Y131_Y133S_YF] | 0.551 | 0.352 | 0.758 | 0.49 | 0.441 | 0.404 | 0.811 | 0.437 | 0.467 | 0.334 | 0.52 | 0.422 | 0.73 | 0.585 | 0.37 | 0.697 |
| MKKMHYVDPDR [ST3GAL5_Y99_H104R] | 0.76 | 0.567 | 0.879 | 0.349 | 0.322 | 0.395 | 0.534 | 0.388 | 0.346 | 0.321 | 0.521 | 0.331 | 0.495 | 0.436 | 0.294 | 0.407 |
| MLEVPYVDHNS [F10_Y384_R387H] | 0.547 | 0.407 | 0.707 | 0.618 | 0.506 | 0.416 | 1.24 | 0.51 | 0.583 | 0.594 | 0.786 | 0.516 | 1.42 | 0.817 | 0.424 | 1.2 |
| MPLTEYLKRIK [CNGB3_Y200] | 0.75 | 0.489 | 1.01 | 0.365 | 0.325 | 0.34 | 0.613 | 0.365 | 0.345 | 0.266 | 0.462 | 0.381 | 0.616 | 0.525 | 0.379 | 0.621 |
| MPQNEYIELHR [NSA2_Y6] | 0.767 | 0.601 | 0.808 | 0.743 | 0.66 | 0.444 | 0.7 | 0.673 | 0.325 | 0.696 | 1.03 | 1.95 | 0.767 | 0.497 | 0.338 | 0.9 |
| MQMEEYRGRVE [BTNL2_Y91_W94R] | 0.871 | 0.408 | 0.785 | 0.459 | 0.437 | 0.379 | 0.573 | 0.39 | 0.424 | 0.421 | 0.539 | 0.411 | 0.874 | 0.458 | 0.383 | 0.755 |
| MRALIYNSSTV [PLEKHA7_Y243_A248V] | 0.605 | 0.463 | 0.674 | 0.754 | 0.77 | 0.714 | 0.726 | 0.657 | 0.51 | 0.447 | 0.57 | 0.447 | 0.824 | 0.872 | 0.405 | 0.669 |
